Data set [1] concerns the target T1, NFKB2 (p52) homodimer (UniProt Q00653 Q00653:1-454).
T1 sequence: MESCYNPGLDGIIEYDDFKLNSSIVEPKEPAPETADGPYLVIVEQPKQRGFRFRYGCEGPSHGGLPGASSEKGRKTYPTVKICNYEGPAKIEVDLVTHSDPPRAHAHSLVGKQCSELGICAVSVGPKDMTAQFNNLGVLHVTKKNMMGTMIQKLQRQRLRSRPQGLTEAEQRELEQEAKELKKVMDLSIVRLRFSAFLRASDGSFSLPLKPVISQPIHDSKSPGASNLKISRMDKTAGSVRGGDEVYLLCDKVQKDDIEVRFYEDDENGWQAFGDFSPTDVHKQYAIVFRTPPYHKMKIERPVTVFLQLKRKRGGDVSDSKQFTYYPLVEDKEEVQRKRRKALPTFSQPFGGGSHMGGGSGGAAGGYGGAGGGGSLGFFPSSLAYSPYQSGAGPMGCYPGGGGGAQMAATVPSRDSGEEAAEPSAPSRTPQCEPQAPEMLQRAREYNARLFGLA
Kind of data set: EMSA; methylation interference shows contacts to GGGG on both strands. As to conditions: chain copies: 2 (stated); label: 32P. Background: A gel shift assay detects complexes by their altered migration in electrophoresis.

Data set [2] concerns the target T2, NFKB1 (p50) homodimer (UniProt P19838 P19838:1-433). The description is as above. As to conditions: chain copies: 2 (stated); label: 32P.
The target in another data set is Rel A homodimer (UniProt Q04206 Q04206:1-551). Put plainly: EMSA. As to conditions: chain copies: 2 (stated); label: 32P.
Sequence of Rel A homodimer (Q04206 whole entry, one chain of several): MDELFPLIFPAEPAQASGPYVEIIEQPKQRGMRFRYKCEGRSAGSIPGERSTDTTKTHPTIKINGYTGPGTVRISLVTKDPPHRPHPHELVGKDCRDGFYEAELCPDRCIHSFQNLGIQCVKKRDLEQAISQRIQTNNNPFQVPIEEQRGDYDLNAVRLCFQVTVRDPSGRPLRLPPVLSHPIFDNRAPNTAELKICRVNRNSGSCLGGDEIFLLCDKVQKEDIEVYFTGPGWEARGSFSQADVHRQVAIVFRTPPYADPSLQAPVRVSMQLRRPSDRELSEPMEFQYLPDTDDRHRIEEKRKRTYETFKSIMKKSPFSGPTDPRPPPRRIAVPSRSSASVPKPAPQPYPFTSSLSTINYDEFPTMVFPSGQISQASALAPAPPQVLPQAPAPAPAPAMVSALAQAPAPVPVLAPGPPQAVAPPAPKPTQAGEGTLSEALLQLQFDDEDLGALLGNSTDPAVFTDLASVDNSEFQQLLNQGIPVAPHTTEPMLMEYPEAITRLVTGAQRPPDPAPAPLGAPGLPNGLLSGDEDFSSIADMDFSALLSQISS
Data set [3] has as its target T1, NFKB2 (p52) homodimer. Put plainly: EMSA. The settings on record: chain copies: 2 (stated).
The target of data set [4] is T2, NFKB1 (p50) homodimer. Put plainly: EMSA. The settings on record: chain copies: 2 (stated).
Data set [5] deals with T1, NFKB2 (p52) homodimer. Put plainly: EMSA; labeled oligonucleotides bound. The settings on record: chain copies: 2 (stated); label: 32P.
Data set [6] has as its target T2, NFKB1 (p50) homodimer. Kind of data set: EMSA; labeled oligonucleotides bound. The settings on record: chain copies: 2 (stated); label: 32P.

T2 sequence (P19838 1-433, one chain of several): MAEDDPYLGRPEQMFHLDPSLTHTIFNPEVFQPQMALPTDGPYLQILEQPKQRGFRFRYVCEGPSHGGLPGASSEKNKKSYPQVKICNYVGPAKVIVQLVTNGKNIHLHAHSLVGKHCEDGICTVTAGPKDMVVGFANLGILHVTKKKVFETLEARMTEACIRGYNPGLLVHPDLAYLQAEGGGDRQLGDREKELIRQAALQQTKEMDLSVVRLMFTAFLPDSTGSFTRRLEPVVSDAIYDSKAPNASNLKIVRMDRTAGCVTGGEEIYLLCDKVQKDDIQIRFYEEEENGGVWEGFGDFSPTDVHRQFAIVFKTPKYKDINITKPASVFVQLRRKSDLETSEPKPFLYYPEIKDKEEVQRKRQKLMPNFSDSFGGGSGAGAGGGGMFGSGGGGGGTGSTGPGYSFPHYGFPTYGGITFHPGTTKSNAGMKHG

B1: P-selectin 4642-4664 (dsDNA)
DNA 1: GGAAGGGGGTGACCCCTTGCCTC
DNA 2: GAGGCAAGGGGTCACCCCCTTCC
Regarding B1, the binding result is listed as “binds” in the data set with NFKB2 (p52) homodimer [1], “binds” with NFKB1 (p50) homodimer [2] and “no binding” with Rel A homodimer.

B2: P-selectin 4642-4664 ATAG mutant (dsDNA)
DNA 1: GGAAGGGGGTGAATAGTTGCCTC
DNA 2: GAGGCAACTATTCACCCCCTTCC
modifications: [none]
Consider B2, for which the binding result with NFKB2 (p52) homodimer [3] and in the data set with NFKB1 (p50) homodimer [4] was “no binding” throughout.

B3: P-selectin 4632-4672 (dsDNA)
DNA 1: CATCTTCCATGGAAGGGGGTGACCCCTTGCCTCTTGGCAAC
DNA 2: GTTGCCAAGAGGCAAGGGGTCACCCCCTTCCATGGAAGATG
Turning to B3, the binding result with Rel A homodimer is “no binding”; with NFKB2 (p52) homodimer [5] it was “binds”; with NFKB1 (p50) homodimer [6] it was “binds”.

The values are drawn from patent publication US5605821, “Expression control sequences of the P-selectin gene” (Board of Regents of the University of Oklahoma).
